T1: PCLO, Q9Y6V0
T1 sequence (Q9Y6V0 4491-4600, limits assumed, looked up): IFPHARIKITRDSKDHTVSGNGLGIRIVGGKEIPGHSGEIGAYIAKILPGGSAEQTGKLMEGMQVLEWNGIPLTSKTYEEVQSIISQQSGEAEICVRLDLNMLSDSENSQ

T2: GRIP1_7, Q9Y3R0
T2 sequence (Q9Y3R0 999-1096, limits assumed, looked up): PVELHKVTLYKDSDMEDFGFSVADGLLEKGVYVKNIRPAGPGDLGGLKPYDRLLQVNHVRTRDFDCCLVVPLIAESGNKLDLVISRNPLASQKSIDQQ

T3: APBA2_2, Q99767
T3 sequence (Q99767 654-744, limits assumed, looked up): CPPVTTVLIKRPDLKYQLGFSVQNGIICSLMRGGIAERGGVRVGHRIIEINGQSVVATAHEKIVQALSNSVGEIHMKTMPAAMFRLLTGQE

T4: GRIP1_4, Q9Y3R0
T4 sequence (Q9Y3R0 467-571, limits assumed, looked up): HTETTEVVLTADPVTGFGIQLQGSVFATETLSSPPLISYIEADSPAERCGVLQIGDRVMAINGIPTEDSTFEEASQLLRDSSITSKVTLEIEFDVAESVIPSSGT

T5: FRMPD1, Q5SYB0
T5 sequence (Q5SYB0 52-145, limits assumed, looked up): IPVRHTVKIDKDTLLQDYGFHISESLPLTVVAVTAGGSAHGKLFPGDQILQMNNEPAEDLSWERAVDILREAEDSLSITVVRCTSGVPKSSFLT

T6: TIAM2, Q8IVF5
T6 sequence (Q8IVF5 885-986, limits assumed, looked up): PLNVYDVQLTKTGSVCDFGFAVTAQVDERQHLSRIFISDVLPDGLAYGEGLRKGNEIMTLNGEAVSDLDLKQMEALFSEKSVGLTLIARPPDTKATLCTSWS

T7: PTPN13_1, Q12923
T7 sequence (Q12923 1088-1188, limits assumed, looked up): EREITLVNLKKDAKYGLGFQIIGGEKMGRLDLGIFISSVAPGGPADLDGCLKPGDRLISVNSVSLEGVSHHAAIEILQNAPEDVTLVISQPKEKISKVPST

T8: PDZD7_3, Q9H5P4
T8 sequence (Q9H5P4 857-944, limits assumed, looked up): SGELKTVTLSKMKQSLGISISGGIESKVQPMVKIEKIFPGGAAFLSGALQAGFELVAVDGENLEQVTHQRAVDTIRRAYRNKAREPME

T9: LIN7A, O14910
T9 sequence (O14910 103-200, limits assumed, looked up): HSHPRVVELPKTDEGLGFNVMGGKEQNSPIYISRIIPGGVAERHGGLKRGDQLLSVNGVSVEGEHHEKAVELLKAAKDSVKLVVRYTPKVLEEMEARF

T10: LIN7B, Q9HAP6
T10 sequence (Q9HAP6 88-185, limits assumed, looked up): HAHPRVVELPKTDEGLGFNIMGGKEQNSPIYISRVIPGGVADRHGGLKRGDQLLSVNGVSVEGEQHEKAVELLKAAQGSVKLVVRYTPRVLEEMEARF


Experiments:
Experiment in all cases: holdup assay
Design in all cases: key: below the threshold = too weak to quantify, mostly under pKd 3.1 to 4
Details in all cases: plain residues with an end cap or a label only (N-terminal biotin on a linker: ado-ado)
GRID2IP_2, A4D2P6 = target: GRID2IP_2, A4D2P6
PCLO, Q9Y6V0 = target: T1, PCLO, Q9Y6V0
MAST1, Q9Y2H9 = target: MAST1, Q9Y2H9
LNX1_3, Q8TBB1 = target: LNX1_3, Q8TBB1
LNX1_1, Q8TBB1 = target: LNX1_1, Q8TBB1
SCRIB_1, Q14160 = target: SCRIB_1, Q14160
MAGI2_3, Q86UL8 = target: MAGI2_3, Q86UL8
GRIP1_7, Q9Y3R0 = target: T2, GRIP1_7, Q9Y3R0
PDZRN4_1, Q6ZMN7 = target: PDZRN4_1, Q6ZMN7
APBA2_2, Q99767 = target: T3, APBA2_2, Q99767
TJP1_2, Q07157 = target: TJP1_2, Q07157
GRIP1_4, Q9Y3R0 = target: T4, GRIP1_4, Q9Y3R0
FRMPD1, Q5SYB0 = target: T5, FRMPD1, Q5SYB0
GRID2IP_1, A4D2P6 = target: GRID2IP_1, A4D2P6
IL16_1, Q14005 = target: IL16_1, Q14005
DLG4_2, P78352 = target: DLG4_2, P78352
TIAM2, Q8IVF5 = target: T6, TIAM2, Q8IVF5
PTPN13_1, Q12923 = target: T7, PTPN13_1, Q12923
MAGI2_4, Q86UL8 = target: MAGI2_4, Q86UL8
PDZD7_3, Q9H5P4 = target: T8, PDZD7_3, Q9H5P4
LIN7A, O14910 = target: T9, LIN7A, O14910
Inadl_5, Q8NI35 = target: Inadl_5, Q8NI35
MAGI2_6, Q86UL8 = target: MAGI2_6, Q86UL8
LIN7B, Q9HAP6 = target: T10, LIN7B, Q9HAP6
DLG2_3, Q15700 = target: DLG2_3, Q15700
FRMPD3, Q5JV73 = target: FRMPD3, Q5JV73
FRMPD4, Q14CM0 = target: FRMPD4, Q14CM0
Sequence of FRMPD4, Q14CM0 (Q14CM0 67-160): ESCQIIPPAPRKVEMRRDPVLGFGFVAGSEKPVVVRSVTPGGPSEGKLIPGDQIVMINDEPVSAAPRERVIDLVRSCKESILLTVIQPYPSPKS

Sequence of MAST1, Q9Y2H9 (Q9Y2H9 962-1065): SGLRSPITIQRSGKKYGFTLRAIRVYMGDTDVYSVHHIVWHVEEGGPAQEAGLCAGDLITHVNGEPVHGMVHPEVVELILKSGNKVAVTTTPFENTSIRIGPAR
Sequence of MAGI2_6, Q86UL8 (Q86UL8 1141-1229): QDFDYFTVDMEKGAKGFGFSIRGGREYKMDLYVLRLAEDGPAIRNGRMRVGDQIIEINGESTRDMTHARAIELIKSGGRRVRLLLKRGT
Sequence of TJP1_2, Q07157 (Q07157 181-274): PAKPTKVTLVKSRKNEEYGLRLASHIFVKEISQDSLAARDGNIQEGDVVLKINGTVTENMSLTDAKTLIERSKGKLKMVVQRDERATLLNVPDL
Sequence of IL16_1, Q14005 (Q14005 210-306): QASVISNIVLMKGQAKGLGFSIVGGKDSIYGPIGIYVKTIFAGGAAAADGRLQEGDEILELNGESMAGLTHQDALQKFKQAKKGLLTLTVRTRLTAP
Sequence of MAGI2_4, Q86UL8 (Q86UL8 772-865): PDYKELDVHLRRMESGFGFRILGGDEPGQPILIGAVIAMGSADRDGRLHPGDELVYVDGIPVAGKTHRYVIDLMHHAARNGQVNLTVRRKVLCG
Sequence of SCRIB_1, Q14160 (Q14160 718-814): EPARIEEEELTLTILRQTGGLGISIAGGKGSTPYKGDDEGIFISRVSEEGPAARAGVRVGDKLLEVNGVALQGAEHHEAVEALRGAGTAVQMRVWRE
Sequence of PDZRN4_1, Q6ZMN7 (Q6ZMN7 213-318): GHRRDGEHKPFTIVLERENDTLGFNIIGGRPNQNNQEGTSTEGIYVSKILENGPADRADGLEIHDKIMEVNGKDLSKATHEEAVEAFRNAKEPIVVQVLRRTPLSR
Sequence of GRID2IP_1, A4D2P6 (A4D2P6 1-87): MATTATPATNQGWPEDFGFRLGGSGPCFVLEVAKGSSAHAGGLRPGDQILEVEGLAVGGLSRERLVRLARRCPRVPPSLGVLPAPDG
Sequence of LNX1_3, Q8TBB1 (Q8TBB1 500-596): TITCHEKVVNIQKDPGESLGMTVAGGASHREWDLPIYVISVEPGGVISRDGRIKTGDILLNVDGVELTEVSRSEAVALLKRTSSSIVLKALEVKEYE
Sequence of GRID2IP_2, A4D2P6 (A4D2P6 272-370): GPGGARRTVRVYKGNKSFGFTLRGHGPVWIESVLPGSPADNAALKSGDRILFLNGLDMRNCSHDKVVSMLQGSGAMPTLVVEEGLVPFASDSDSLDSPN
Sequence of DLG4_2, P78352 (P78352 155-259): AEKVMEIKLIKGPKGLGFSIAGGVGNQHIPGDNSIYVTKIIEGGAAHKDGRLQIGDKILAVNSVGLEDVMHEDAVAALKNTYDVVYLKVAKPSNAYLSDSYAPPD
Sequence of LNX1_1, Q8TBB1 (Q8TBB1 261-371): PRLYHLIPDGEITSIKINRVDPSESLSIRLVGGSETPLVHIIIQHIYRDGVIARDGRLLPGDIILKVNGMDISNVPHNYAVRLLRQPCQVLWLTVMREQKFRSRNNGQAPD
Sequence of Inadl_5, Q8NI35 (Q8NI35 673-780): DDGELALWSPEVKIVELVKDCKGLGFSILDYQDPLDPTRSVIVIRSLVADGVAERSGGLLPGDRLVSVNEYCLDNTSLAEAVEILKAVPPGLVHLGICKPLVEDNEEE
Sequence of FRMPD3, Q5JV73 (Q5JV73 12-100): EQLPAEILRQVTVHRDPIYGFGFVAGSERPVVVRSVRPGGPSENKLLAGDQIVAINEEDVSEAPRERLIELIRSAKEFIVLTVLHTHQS
Sequence of MAGI2_3, Q86UL8 (Q86UL8 600-682): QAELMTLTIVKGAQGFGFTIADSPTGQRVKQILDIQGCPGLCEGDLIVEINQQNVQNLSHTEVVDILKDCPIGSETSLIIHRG

pKd (GRID2IP_2, A4D2P6) | pKd (PCLO, Q9Y6V0) | pKd (MAST1, Q9Y2H9) | pKd (LNX1_3, Q8TBB1) | pKd (LNX1_1, Q8TBB1) | pKd (SCRIB_1, Q14160) | pKd (MAGI2_3, Q86UL8) | pKd (GRIP1_7, Q9Y3R0) | pKd (PDZRN4_1, Q6ZMN7) | pKd (APBA2_2, Q99767) | pKd (TJP1_2, Q07157) | pKd (GRIP1_4, Q9Y3R0) | pKd (FRMPD1, Q5SYB0) | pKd (GRID2IP_1, A4D2P6) | pKd (IL16_1, Q14005) | pKd (DLG4_2, P78352) | pKd (TIAM2, Q8IVF5) | pKd (PTPN13_1, Q12923) | pKd (MAGI2_4, Q86UL8) | pKd (PDZD7_3, Q9H5P4) | Binder | also measured
3.53 | below the threshold | below the threshold | below the threshold | below the threshold | 4.25 | 3.53 | below the threshold | 4.18 | below the threshold | below the threshold | below the threshold | below the threshold | below the threshold | 3.76 | 4.92 | below the threshold | below the threshold | 4.1 | 4.26 | TNSRHGETTV [FZD2, Q14332] | pKd (LIN7A, O14910): 3.85; pKd (Inadl_5, Q8NI35): below the threshold; pKd (MAGI2_6, Q86UL8): 4.26; pKd (LIN7B, Q9HAP6): 3.82; pKd (DLG2_3, Q15700): 4.38; pKd (FRMPD3, Q5JV73): below the threshold; pKd (FRMPD4, Q14CM0): below the threshold
4.06 | below the threshold | 4.53 | below the threshold | 3.97 | 3.81 | 3.73 | below the threshold | 4.29 | below the threshold | below the threshold | below the threshold | below the threshold | below the threshold | 3.79 | 4.35 | 4.05 | below the threshold | 4.31 | 3.82 | LESTTVGTSV [KARS1, Q15046] | pKd (LIN7A, O14910): below the threshold; pKd (Inadl_5, Q8NI35): below the threshold; pKd (MAGI2_6, Q86UL8): 4.32; pKd (LIN7B, Q9HAP6): 3.79; pKd (DLG2_3, Q15700): 4.23; pKd (FRMPD3, Q5JV73): below the threshold; pKd (FRMPD4, Q14CM0): below the threshold

Second part, the binder before the results:

Binder | pKd (GRID2IP_2, A4D2P6) | pKd (PCLO, Q9Y6V0) | pKd (MAST1, Q9Y2H9) | pKd (LNX1_3, Q8TBB1) | pKd (LNX1_1, Q8TBB1) | pKd (SCRIB_1, Q14160) | pKd (MAGI2_3, Q86UL8) | pKd (GRIP1_7, Q9Y3R0) | pKd (PDZRN4_1, Q6ZMN7) | pKd (APBA2_2, Q99767) | pKd (TJP1_2, Q07157) | pKd (GRIP1_4, Q9Y3R0) | pKd (FRMPD1, Q5SYB0) | pKd (GRID2IP_1, A4D2P6) | pKd (IL16_1, Q14005) | pKd (DLG4_2, P78352) | pKd (TIAM2, Q8IVF5) | pKd (PTPN13_1, Q12923) | pKd (MAGI2_4, Q86UL8) | pKd (PDZD7_3, Q9H5P4) | also measured
STKRKLASAV [NCF1, P14598] | 4.28 | below the threshold | below the threshold | below the threshold | below the threshold | below the threshold | below the threshold | below the threshold | below the threshold | below the threshold | below the threshold | below the threshold | below the threshold | below the threshold | 3.52 | 4.51 | 3.75 | below the threshold | below the threshold | below the threshold | pKd (LIN7A, O14910): below the threshold; pKd (Inadl_5, Q8NI35): below the threshold; pKd (MAGI2_6, Q86UL8): below the threshold; pKd (LIN7B, Q9HAP6): below the threshold; pKd (DLG2_3, Q15700): 4.09; pKd (FRMPD3, Q5JV73): below the threshold; pKd (FRMPD4, Q14CM0): below the threshold
ARESQKVSHV [FAM110B, Q8TC76] | 4.66 | below the threshold | 4.13 | below the threshold | 3.97 | 3.74 | 4.25 | below the threshold | below the threshold | below the threshold | below the threshold | below the threshold | below the threshold | below the threshold | 4.17 | 4.53 | below the threshold | below the threshold | below the threshold | 4.63 | pKd (LIN7A, O14910): below the threshold; pKd (Inadl_5, Q8NI35): below the threshold; pKd (MAGI2_6, Q86UL8): 4.43; pKd (LIN7B, Q9HAP6): below the threshold; pKd (DLG2_3, Q15700): 3.62; pKd (FRMPD3, Q5JV73): below the threshold; pKd (FRMPD4, Q14CM0): below the threshold
ILRKSTTTTV [PRR16, Q569H4] | 3.8 | below the threshold | 4.29 | below the threshold | below the threshold | 3.76 | 3.74 | below the threshold | below the threshold | below the threshold | below the threshold | below the threshold | below the threshold | below the threshold | below the threshold | 5.2 | below the threshold | below the threshold | 4.14 | 4.67 | pKd (LIN7A, O14910): below the threshold; pKd (Inadl_5, Q8NI35): below the threshold; pKd (MAGI2_6, Q86UL8): below the threshold; pKd (LIN7B, Q9HAP6): below the threshold; pKd (DLG2_3, Q15700): 4.38; pKd (FRMPD3, Q5JV73): below the threshold; pKd (FRMPD4, Q14CM0): below the threshold
VKRNSKETVV [MARCHF3, Q86UD3] | below the threshold | below the threshold | below the threshold | below the threshold | below the threshold | 4.55 | 4.2 | below the threshold | below the threshold | below the threshold | below the threshold | below the threshold | below the threshold | below the threshold | 3.94 | 6.03 | 3.73 | 3.53 | 4.21 | 4.82 | pKd (LIN7A, O14910): below the threshold; pKd (Inadl_5, Q8NI35): 3.67; pKd (MAGI2_6, Q86UL8): below the threshold; pKd (LIN7B, Q9HAP6): 3.86; pKd (DLG2_3, Q15700): 4.91; pKd (FRMPD3, Q5JV73): below the threshold; pKd (FRMPD4, Q14CM0): below the threshold
